Earlier results on one substance are cited in PMC5938170.

The target of one series is EGFR (Homo sapiens) (UniProt P00533).
The target of the next series is Met (Homo sapiens) (UniProt P08581).
Sequence of UniProt P08581 (P08581 25-932): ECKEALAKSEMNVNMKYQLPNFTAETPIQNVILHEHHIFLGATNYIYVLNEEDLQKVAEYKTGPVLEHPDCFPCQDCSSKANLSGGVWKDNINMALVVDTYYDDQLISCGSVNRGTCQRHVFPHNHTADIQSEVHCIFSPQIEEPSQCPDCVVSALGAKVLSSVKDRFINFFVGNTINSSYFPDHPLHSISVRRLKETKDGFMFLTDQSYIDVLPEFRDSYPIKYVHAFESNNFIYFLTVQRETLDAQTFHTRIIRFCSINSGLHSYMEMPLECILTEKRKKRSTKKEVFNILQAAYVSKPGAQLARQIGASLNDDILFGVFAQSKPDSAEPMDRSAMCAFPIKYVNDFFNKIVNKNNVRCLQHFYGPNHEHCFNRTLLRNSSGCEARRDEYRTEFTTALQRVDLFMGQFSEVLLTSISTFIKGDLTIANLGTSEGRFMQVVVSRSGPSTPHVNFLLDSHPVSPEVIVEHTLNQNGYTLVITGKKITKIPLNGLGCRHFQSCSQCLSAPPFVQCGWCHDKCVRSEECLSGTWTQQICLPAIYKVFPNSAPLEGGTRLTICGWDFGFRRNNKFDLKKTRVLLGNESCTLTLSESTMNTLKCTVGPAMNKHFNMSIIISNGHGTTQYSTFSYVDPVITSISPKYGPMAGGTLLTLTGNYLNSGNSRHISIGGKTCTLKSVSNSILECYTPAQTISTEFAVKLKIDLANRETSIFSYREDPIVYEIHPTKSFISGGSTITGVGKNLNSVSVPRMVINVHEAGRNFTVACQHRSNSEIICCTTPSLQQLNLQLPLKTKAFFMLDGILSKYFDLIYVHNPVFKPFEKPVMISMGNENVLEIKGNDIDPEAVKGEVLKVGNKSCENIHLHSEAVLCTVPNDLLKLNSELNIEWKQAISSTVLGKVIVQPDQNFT

Broadly, the Kd is a measure of binding affinity in units of concentration. Decorin (from UniProt P07585): the Kd with EGFR (Homo sapiens) was 75 nM; in the series with Met (Homo sapiens) it was 2 nM.
